The text below walks through data of US20260224629A1 (Memorial Sloan Kettering, published 2026).

The assay deals with T1, murine DLL3 (murine, UniProt O88516 33-592).
T1 construct: whole, on cells; Expressed endogenously on the murine SCLC (mSCLC) cell line; also called mDLL3; mouse DLL3
T1 sequence (looked up): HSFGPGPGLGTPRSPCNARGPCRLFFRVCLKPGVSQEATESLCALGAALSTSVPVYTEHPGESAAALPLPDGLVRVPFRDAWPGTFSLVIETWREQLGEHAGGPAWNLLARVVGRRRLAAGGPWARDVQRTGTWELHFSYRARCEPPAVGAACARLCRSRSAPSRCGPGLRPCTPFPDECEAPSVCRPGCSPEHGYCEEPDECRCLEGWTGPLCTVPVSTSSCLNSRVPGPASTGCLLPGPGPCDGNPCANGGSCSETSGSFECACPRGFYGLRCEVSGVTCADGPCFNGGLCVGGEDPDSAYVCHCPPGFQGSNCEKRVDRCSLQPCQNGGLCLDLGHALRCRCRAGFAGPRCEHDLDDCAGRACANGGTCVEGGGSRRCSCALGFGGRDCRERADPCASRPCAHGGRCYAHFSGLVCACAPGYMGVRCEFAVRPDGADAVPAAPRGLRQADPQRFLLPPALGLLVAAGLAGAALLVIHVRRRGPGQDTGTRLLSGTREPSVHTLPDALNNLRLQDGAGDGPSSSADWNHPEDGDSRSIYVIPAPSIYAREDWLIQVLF
The experiment in a line: told in words; shown by lysis and IFN-γ release of CAR T cells in coculture with mSCLC cells that express murine DLL3. The method, then: The CAR consists of the SC16.8 single-chain variable fragment (scFv) and murine CD28 and CD3ζ domains. FIG. 2B measures the IFN-γ levels in supernatant of 24-hour coculture of murine CAR T cells with or without mSCLC cells. **P<0.01, ****P<0.0001 (2-way ANOVA, n=2). FIG. 2C depicts the survival of mice with metastatic mSCLC that were treated with the indicated doses of SC16.8m28mz CAR T cells (day 7) with or without 50 mg/kg cyclophosphamide pretreatment (day 6). **P<0.01 (log-rank test, n=4-6). FIG. 2D is a schematic of CAR design with SC16.8 scFv, murine CD28 and CD3ζ signaling domains, and the murine 1112 fusion transgene or murine 1118 transgene. IRES, internal ribosome entry site. FIG. 2E illustrates IFN-γ production by the respective CAR T cells in the absence and presence of mSCLC cells. *P<0.05, **P<0.01, ***P<0.001, ****P<0.0001 (2-way ANOVA and Student's t test, n=2-3). FIG. 2F depicts a luciferase killing assay with SC16.8 CAR T cells that express IL-12, IL-18, or no cytokine and 4H11 CAR T cells as negative control (n=3). FIGS. 2G and 2H depict serum IFN-γ and TNF-α levels (n=12-15) (2G) and circulating CAR T cells (n=5) (2H) in the blood of mice collected 3 days after treatment with the indicated CAR T cells. **P<0.01, ***P<0.001, ****P<0.0001 (1-way ANOVA). […] FIG. 2J illustrates the survival of mice in FIG. 2I. *P<0.05, ****P<0.0001 (log-rank test). […]

B1: SC16.8m28mz CAR (SC16.8 scFv with Flag-tag, murine CD28 transmembrane and intracellular domain and murine CD3zeta intracellular domain, on murine T cells) (scFv, V domains shown)
VH: QAQLQQSGAELVRPGTSVKVSCKASGYAFTNYLIEWVKQRPGQGLEWIGVINPGTGGTNYNENFKGKATLTADKSSSTAYMQLSSLTSDDSAVYFCARSPYDYHEGAMDYWGQGTSVTVSS
VL: EIQMTQSPSSMSASLGDRITITCQATQDIVKNLNWYQQKPGKPPSFLIYYAIELAEGVPSRFSGSGSGSDYSLTISNLESEDFADYYCLQFYEFPFTFGAGTKLELK
notes: Tested as a membrane CAR on transduced murine T cells; VH and VL are joined as an scFv; also called SC16.8 CAR (murine CAR T cells); the presently disclosed CAR
On to B1, for which the binding result is reported as “binds”.
